Data reported in PMC5082570, “Structure and biochemical properties of recombinant human dimethylglycine dehydrogenase and comparison to the disease‐related H109R variant” (The Febs Journal, 2016).

What was measured:
[1] = molecular target: T1, human dimethylglycine dehydrogenase (hDMGDH) (Homo sapiens, UniProt Q9UI17); experiment: ferrocenium activity assay against THF concentration; assay type: biochemical; conditions: 1 mM DMG, 0.2 mM ferrocene, 0-75 μM THF, 50 mM HEPES/NaOH, 150 mM NaCl, 0.1 mM EDTA, pH 7.8, 25 °C; physiological methyl acceptor
T1 construct: gene DMGDH; covalent FAD at His91
T1 sequence (Q9UI17 29-866): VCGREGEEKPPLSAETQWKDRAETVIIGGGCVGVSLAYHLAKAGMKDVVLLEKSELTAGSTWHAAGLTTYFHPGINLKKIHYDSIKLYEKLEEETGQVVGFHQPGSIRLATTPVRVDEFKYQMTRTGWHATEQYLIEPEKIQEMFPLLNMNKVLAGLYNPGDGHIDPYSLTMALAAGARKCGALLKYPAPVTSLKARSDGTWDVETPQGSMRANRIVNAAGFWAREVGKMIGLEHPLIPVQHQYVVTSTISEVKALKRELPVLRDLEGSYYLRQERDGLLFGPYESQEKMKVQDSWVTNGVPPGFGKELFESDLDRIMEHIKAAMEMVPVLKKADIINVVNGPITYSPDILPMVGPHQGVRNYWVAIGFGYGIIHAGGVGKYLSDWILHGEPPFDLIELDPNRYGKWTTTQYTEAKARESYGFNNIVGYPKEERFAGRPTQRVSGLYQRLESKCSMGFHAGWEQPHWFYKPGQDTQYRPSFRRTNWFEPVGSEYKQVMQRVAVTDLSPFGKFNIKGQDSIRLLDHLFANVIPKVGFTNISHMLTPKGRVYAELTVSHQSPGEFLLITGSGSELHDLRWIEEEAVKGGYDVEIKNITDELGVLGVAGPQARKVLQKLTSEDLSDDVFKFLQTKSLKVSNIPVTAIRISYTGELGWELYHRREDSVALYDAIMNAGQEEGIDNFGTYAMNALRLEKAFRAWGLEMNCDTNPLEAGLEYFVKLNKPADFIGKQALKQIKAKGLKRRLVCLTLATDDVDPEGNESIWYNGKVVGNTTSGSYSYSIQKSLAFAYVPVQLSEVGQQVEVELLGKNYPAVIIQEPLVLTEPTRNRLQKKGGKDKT

[2] = molecular target: T1, human dimethylglycine dehydrogenase (hDMGDH); experiment: stopped flow, FAD reduction at […] nm, hyperbolic fit of kobs; assay type: biochemical; conditions: anaerobic, 50 mM HEPES/NaOH, 150 mM NaCl, pH 7.8, 25 °C; pre-steady-state; read-out: K D,DMG
[3] = molecular target: T1, human dimethylglycine dehydrogenase (hDMGDH); experiment: X-ray crystal structure, […] Å; assay type: binding; conditions: covalent; 8alpha-methyl group linked to N3 of His91
purified protein = substrate: CN(C)CC(=O)O; experiment: purified protein; assay type: biochemical, Homo sapiens; conditions: 0.2 mM ferrocenium hexafluorophosphate as electron acceptor, 50 mM HEPES/NaOH, 150 mM NaCl, 0.1 mM EDTA, pH 7.8, 25 °C
[4] = natural disease variant, partly apoprotein

Nc1nc2c(c(=O)[nH]1)N[C@@H](CNc1ccc(C(=O)N[C@@H](CCC(=O)O)C(=O)O)cc1)CN2 [THF, tetrahydrofolate]
activity [1]: the activity of WT decreases as a function of the THF concentration

CN(C)CC(=O)O [DMG, dimethylglycine]
Kd [2]: 4.9 ± 0.3 mM

Cc1cc2nc3c(=O)[nH]c(=O)nc-3n(C[C@H](O)[C@H](O)[C@H](O)COP(=O)(O)OP(=O)(O)OC[C@H]3O[C@@H](n4cnc5c(N)ncnc54)[C@H](O)[C@@H]3O)c2cc1C [FAD, flavin adenine dinucleotide]
X-ray crystal structure, 3.1 Å [3]: The FAD cofactor is covalently attached to the protein through a linkage between N3

B1: human dimethylglycine dehydrogenase (hDMGDH) (Homo sapiens) (protein)
chain: VCGREGEEKPPLSAETQWKDRAETVIIGGGCVGVSLAYHLAKAGMKDVVLLEKSELTAGSTWHAAGLTTYFHPGINLKKIHYDSIKLYEKLEEETGQVVGFHQPGSIRLATTPVRVDEFKYQMTRTGWHATEQYLIEPEKIQEMFPLLNMNKVLAGLYNPGDGHIDPYSLTMALAAGARKCGALLKYPAPVTSLKARSDGTWDVETPQGSMRANRIVNAAGFWAREVGKMIGLEHPLIPVQHQYVVTSTISEVKALKRELPVLRDLEGSYYLRQERDGLLFGPYESQEKMKVQDSWVTNGVPPGFGKELFESDLDRIMEHIKAAMEMVPVLKKADIINVVNGPITYSPDILPMVGPHQGVRNYWVAIGFGYGIIHAGGVGKYLSDWILHGEPPFDLIELDPNRYGKWTTTQYTEAKARESYGFNNIVGYPKEERFAGRPTQRVSGLYQRLESKCSMGFHAGWEQPHWFYKPGQDTQYRPSFRRTNWFEPVGSEYKQVMQRVAVTDLSPFGKFNIKGQDSIRLLDHLFANVIPKVGFTNISHMLTPKGRVYAELTVSHQSPGEFLLITGSGSELHDLRWIEEEAVKGGYDVEIKNITDELGVLGVAGPQARKVLQKLTSEDLSDDVFKFLQTKSLKVSNIPVTAIRISYTGELGWELYHRREDSVALYDAIMNAGQEEGIDNFGTYAMNALRLEKAFRAWGLEMNCDTNPLEAGLEYFVKLNKPADFIGKQALKQIKAKGLKRRLVCLTLATDDVDPEGNESIWYNGKVVGNTTSGSYSYSIQKSLAFAYVPVQLSEVGQQVEVELLGKNYPAVIIQEPLVLTEPTRNRLQKKGGKDKT
notes: covalent FAD at His91
Km (purified protein): 1.4 ± 0.1 mM | Vmax (purified protein): 22.1 µM/min | kcat (purified protein): 3.55 ± 0.0667 s⁻¹ | kcat/Km (purified protein): 2280 ± 267 M⁻¹ s⁻¹

B2: human dimethylglycine dehydrogenase (hDMGDH) (Homo sapiens; H109R) (protein)
chain: VCGREGEEKPPLSAETQWKDRAETVIIGGGCVGVSLAYHLAKAGMKDVVLLEKSELTAGSTWHAAGLTTYFHPGINLKKIRYDSIKLYEKLEEETGQVVGFHQPGSIRLATTPVRVDEFKYQMTRTGWHATEQYLIEPEKIQEMFPLLNMNKVLAGLYNPGDGHIDPYSLTMALAAGARKCGALLKYPAPVTSLKARSDGTWDVETPQGSMRANRIVNAAGFWAREVGKMIGLEHPLIPVQHQYVVTSTISEVKALKRELPVLRDLEGSYYLRQERDGLLFGPYESQEKMKVQDSWVTNGVPPGFGKELFESDLDRIMEHIKAAMEMVPVLKKADIINVVNGPITYSPDILPMVGPHQGVRNYWVAIGFGYGIIHAGGVGKYLSDWILHGEPPFDLIELDPNRYGKWTTTQYTEAKARESYGFNNIVGYPKEERFAGRPTQRVSGLYQRLESKCSMGFHAGWEQPHWFYKPGQDTQYRPSFRRTNWFEPVGSEYKQVMQRVAVTDLSPFGKFNIKGQDSIRLLDHLFANVIPKVGFTNISHMLTPKGRVYAELTVSHQSPGEFLLITGSGSELHDLRWIEEEAVKGGYDVEIKNITDELGVLGVAGPQARKVLQKLTSEDLSDDVFKFLQTKSLKVSNIPVTAIRISYTGELGWELYHRREDSVALYDAIMNAGQEEGIDNFGTYAMNALRLEKAFRAWGLEMNCDTNPLEAGLEYFVKLNKPADFIGKQALKQIKAKGLKRRLVCLTLATDDVDPEGNESIWYNGKVVGNTTSGSYSYSIQKSLAFAYVPVQLSEVGQQVEVELLGKNYPAVIIQEPLVLTEPTRNRLQKKGGKDKT
notes: covalent FAD at His91
Km (purified protein; [4]): 32.2 ± 5.6 mM | Vmax (purified protein; [4]): 44.1 µM/min | kcat (purified protein; [4]): 9.07 ± 0.667 s⁻¹ | kcat/Km (purified protein; [4]): 183 ± 16.7 M⁻¹ s⁻¹
